Results published in paper PMC8479045, “Assembly defects of human tRNA splicing endonuclease contribute to impaired pre-tRNA processing in pontocerebellar hypoplasia” (Nature Communications, 2021).
Values joined by “and” are separate entries in the source; they are usually repeats but may differ in a detail not shown here. Equal values may be shown once.

Legend:
[1] = system: TSEN2 H377A (inactive);TSEN34 H255A (inactive);TSEN15;TSEN54 (Homo sapiens;Homo sapiens;Homo sapiens;Homo sapiens); test: fluorescence anisotropy; conditions: FA: 50 mM HEPES-NaOH pH 7.4, 100 mM NaCl, 22 °C, 70 nM Cy5-RNA; EMSA: same buffer + 1 mM DTT, 4% glycerol, on ice, 10 nM RNA; pull-down: 50 mM HEPES-NaOH pH …
[2] = system: TSEN2 H377A (inactive);TSEN34 H255A (inactive);TSEN15;TSEN54 (Homo sapiens;Homo sapiens;Homo sapiens;Homo sapiens); test: competition (fluorescence anisotropy); conditions: competitor of 3'-Cy5 pre-tRNA-Phe; FA: 50 mM HEPES-NaOH pH 7.4, 100 mM NaCl, 22 °C, 70 nM Cy5-RNA; EMSA: same buffer + 1 mM DTT, 4% glycerol, on ice, 10 nM RNA; pull-down: 50 mM HEPES-NaOH pH …
[3] = biological target: the molecule itself; test: SEC-MALS; 330 µg TSEN15–34 complex at 1.65 mg/ml, Superdex 200 Increase, 25 mM HEPES-NaOH pH 7.5, 250 mM NaCl; heterodimer to dimer of heterodimers at high protein concentration
[4] = biological target: T1, heterotetrameric tRNA splicing endonuclease TSEN (TSEN2–15–34–54) (human, UniProt Q8NCE0 1-465; Q8WW01 1-171; Q9BSV6 1-310; Q7Z6J9 1-526, high degree of phosphorylation (sites not given)); test: native MS; purified wt TSEN (1.09 mg/ml) and wt TSEN/CLP1 (1.88 mg/ml) from insect cells, exchanged into 200 mM ammonium acetate pH 7.5; Q-ToF modified for high-mass complexes; conditions: both partners purified
T1 construct: human TSEN2, open reading frame, UniProtKB Q8NCE0; human TSEN15, open reading frame, UniProtKB Q8WW01; human TSEN34, open reading frame, UniProtKB Q9BSV6; human TSEN54, open reading frame, UniProtKB Q7Z6J9; His tags were removed with TEV protease; also called tetrameric TSEN; TSEN2–15–34–54 heterotetramer; source: Sf21 insect cells (baculovirus), co-expressed (with CLP1), purified (Ni-NTA, …)
T1 sequence (looked up) 1: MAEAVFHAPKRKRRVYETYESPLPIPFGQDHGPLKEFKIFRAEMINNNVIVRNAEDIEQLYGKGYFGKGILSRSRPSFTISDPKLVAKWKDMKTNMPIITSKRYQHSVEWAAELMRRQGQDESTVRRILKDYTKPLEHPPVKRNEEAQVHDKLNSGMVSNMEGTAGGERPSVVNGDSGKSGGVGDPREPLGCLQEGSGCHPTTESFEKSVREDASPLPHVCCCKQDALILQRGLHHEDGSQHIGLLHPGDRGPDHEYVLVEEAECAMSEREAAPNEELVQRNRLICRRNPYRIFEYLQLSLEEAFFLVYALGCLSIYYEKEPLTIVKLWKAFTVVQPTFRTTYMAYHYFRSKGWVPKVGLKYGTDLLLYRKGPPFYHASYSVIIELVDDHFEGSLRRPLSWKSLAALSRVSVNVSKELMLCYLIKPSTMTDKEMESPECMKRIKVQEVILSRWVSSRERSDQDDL
T1 sequence (looked up) 2: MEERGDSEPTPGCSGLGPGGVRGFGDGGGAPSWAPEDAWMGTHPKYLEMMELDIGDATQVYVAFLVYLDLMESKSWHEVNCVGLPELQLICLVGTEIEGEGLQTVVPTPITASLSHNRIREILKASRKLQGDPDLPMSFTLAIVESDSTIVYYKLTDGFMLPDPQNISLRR
T1 sequence (looked up) 3: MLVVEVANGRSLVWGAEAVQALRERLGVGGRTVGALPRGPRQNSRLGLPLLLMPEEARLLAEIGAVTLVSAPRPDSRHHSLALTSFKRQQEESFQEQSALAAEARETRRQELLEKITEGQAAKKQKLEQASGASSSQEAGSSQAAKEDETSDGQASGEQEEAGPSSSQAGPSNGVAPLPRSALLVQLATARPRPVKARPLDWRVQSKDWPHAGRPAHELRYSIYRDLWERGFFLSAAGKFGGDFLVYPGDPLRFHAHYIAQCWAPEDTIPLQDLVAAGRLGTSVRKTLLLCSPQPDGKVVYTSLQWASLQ
T1 sequence (looked up) 4: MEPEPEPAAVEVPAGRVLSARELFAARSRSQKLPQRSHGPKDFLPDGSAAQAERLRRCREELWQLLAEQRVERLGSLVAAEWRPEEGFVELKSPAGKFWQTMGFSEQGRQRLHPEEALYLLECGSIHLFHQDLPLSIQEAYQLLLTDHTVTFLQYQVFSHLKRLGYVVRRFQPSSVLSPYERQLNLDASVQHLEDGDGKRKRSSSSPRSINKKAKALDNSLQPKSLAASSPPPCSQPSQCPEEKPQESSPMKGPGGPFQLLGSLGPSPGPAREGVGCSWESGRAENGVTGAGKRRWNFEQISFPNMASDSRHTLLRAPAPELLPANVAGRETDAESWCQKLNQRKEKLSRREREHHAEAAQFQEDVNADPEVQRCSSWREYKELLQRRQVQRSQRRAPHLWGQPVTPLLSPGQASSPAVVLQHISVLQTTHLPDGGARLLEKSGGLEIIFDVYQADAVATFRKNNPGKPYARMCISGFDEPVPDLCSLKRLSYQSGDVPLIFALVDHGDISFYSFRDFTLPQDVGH

Molecule: S.c. pre-tRNA-Phe(GAA), 3'-Cy5
- Kd [1]: 173 nM

Molecule: S.c. mature tRNA-Phe(GAA), 3'-Cy5
- Kd [1]: 149 nM

Molecule: S.c. pre-tRNA-Phe(GAA), unlabeled
- Ki [2]: 197 nM

B1: truncated TSEN15–34 complex (TSEN15 residues 23–170 and TSEN34 residues 208–310) (complex, human)
chain 1: GFGDGGGAPSWAPEDAWMGTHPKYLEMMELDIGDATQVYVAFLVYLDLMESKSWHEVNCVGLPELQLICLVGTEIEGEGLQTVVPTPITASLSHNRIREILKASRKLQGDPDLPMSFTLAIVESDSTIVYYKLTDGFMLPDPQNISLR
chain 2: DWPHAGRPAHELRYSIYRDLWERGFFLSAAGKFGGDFLVYPGDPLRFHAHYIAQCWAPEDTIPLQDLVAAGRLGTSVRKTLLLCSPQPDGKVVYTSLQWASLQ
notes: human TSEN15, UniProtKB Q8WW01, residues 23–170; The SEC-MALS methods speak only of 'TSEN15–34 complex'; also called minimal TSEN15–34 complex; source: Sf21 insect cells (baculovirus), co-expressed, purified (Ni-NTA, TEV, SEC); not shown: His10, N-terminal, cleaved
- stoichiometry N [3]: 2

B2: RNA kinase CLP1 (enzyme, human, UniProt Q92989 1-425, looked up)
chain: MGEEANDDKKPTTKFELERETELRFEVEASQSVQLELLTGMAEIFGTELTRNKKFTFDAGAKVAVFTWHGCSVQLSGRTEVAYVSKDTPMLLYLNTHTALEQMRRQAEKEEERGPRVMVVGPTDVGKSTVCRLLLNYAVRLGRRPTYVELDVGQGSVSIPGTMGALYIERPADVEEGFSIQAPLVYHFGSTTPGTNIKLYNKITSRLADVFNQRCEVNRRASVSGCVINTCGWVKGSGYQALVHAASAFEVDVVVVLDQERLYNELKRDLPHFVRTVLLPKSGGVVERSKDFRRECRDERIREYFYGFRGCFYPHAFNVKFSDVKIYKVGAPTIPDSCLPLGMSQEDNQLKLVPVTPGRDMVHHLLSVSTAEGTEENLSETSVAGFIVVTSVDLEHQVFTVLSPAPRPLPKNFLLIMDIRFMDLK
notes: human CLP1, open reading frame, UniProtKB Q92989; source: Sf21 insect cells (baculovirus), co-expressed with the four TSEN subunits, purified (Ni-NTA, heparin, TEV, SEC); not shown: His6, N-terminal, cleaved
- stoichiometry N [4]: 1 and 2
